Test results taken from the nanobody polyreactivity screen of Harvey et al. (2022).

test: yeast display, Sf9 membrane polyspecificity reagent, FACS + sequencing; frameworks hold sequencing errors
Method in brief: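 Galactose induction of a Saccharomyces cerevisiae BJ5465 synthetic nanobody display library ran 36–48 hours. The cells were then stained for 1 hour at 4 °C with 10% biotinylated, detergent-solubilized Sf9 membrane reagent, pulled down on streptavidin microbeads and FACS-sorted into low and high (top ~1%) gates on expression and reagent-binding fluorescence. Labels for polyreactivity follow the gate of origin.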

| Sequence | polyreactivity (PSR sort gate) |
| --- | --- |
| QVQLVESGGGLVQAGGSLRISCAASVSTFWYYAMGWYIQAPRKERELVAPISRTGGGTYYADSVKGRFTISRDNAKNSVYLQMNSLKPEDTAVYYCARGSVYSDAQIYDYWGQGTQVTVSS | low polyreactivity |
| QVQLVESGGGLVQAGGSLRISCADSGITYSANAMGWYRQAPGKERELVAAITGSGGGTYYADSVKGRFTISRDNAKNTVYLQMNSLKPEDTAVYYCKADNYYYSGFDYWGQGTQVTVSS | low polyreactivity |
| QVQLVESGGGLVQAGGSLRISCAPSGFTFIYYDMGWYRQAPGKERELVAAINRGGNTYYADSVKGRFTISRDNAKNTVFLLMNSLKPEDTAVYYCNARSYRRGTWYNSWGQGTKVTVSS | high polyreactivity |
| QVQLVESGGGLVQAGGSLRISCAPSGIIFTDYAMGWYRQAPVKERELVAAISSGGGYTYYADSVKGRFTISRDNAKNTVYLQMISLKPEDTAVYYCAAEGYLISGAGDYLYDYYLGQGTQVTVSS | high polyreactivity |
| QVQLVESGGGLVQAGGSLRISCAPSGSTFYYNAIGWSRQAPGKERELVARISRSGGSTYADSVKGRFTISRDNAKNTVYLQMNSLKPEDTAVYYCNADAYGTPEFTSYAVRYDYWGQGTQVTVSS | low polyreactivity |
| QVQLVESGGGLVQAGGSLRISSAASGRTFGPYAIGWYRQAPGKESELVAAITSSGGSTYYADSVKGRFTISRDTAKNTFYLQMNSLKPEDTAVYYCNKLYWRESPDYDYWGQGTQVTVSS | low polyreactivity |
| QVQLVESGGGLVQAGGSLRISSAASGRTFQTNVMGWYRQAPGKERELVAAISKTGGRTYYADSVKGRFTISRDNAKNTVYLQMNSLNPEDTAVYYCAADSSGYEDYDYWGQGTQVTVSS | high polyreactivity |
| QVQLVESGGGLVQAGGSLRITCAASGSTFATYTIGWYRQPPGKEMELVAAISVSGSRTYADSVKGRFTISRDNAKNSVYLQMNSLKPEDTAVYYCAPRNYSVASYGEYDYWGQGTQVTVSS | high polyreactivity |
| QVQLVESGGGLVQAGGSLRKSCAASGIIFAYYALGCSRQAPGKERELGAAISSDGSTNYADSVKGRFTISRDNAKNSVYLQMNILKPVDTAVYYCAAKAYLYHWFEMYYWGQGTQVTVSS | high polyreactivity |
| QVQLVESGGGLVQAGGSLRKTCAASVRIFHYYAMGWYRQAPGKERELVAAINKSGGRTYYADSVKGRFTISRDNAKNTFYLQMNSLKPEDTAVYYCAAQDGYLGQGTQVTVSS | high polyreactivity |
| QVQLVESGGGLVQAGGSLRLALLPPDLPSTLNDMGLYRQAPGKERELVAAITRGGSTNYADSVKGRFTISRDNAKNTVYLQMNSLKPEDTADYYCAAPYAGWRDGGDYWGQGTQVTVSS | low polyreactivity |
| QVQLVESGGGLVQAGGSLRLCCAAAGSTFVYYAMGSYRAAPGNERELVAAIRNGDGTNYADSVKGRFTISRDNAKNTVYLQMNSLKPEDTAVYYCAAPQGEYFYVYEFDYWGQGTQVTVSS | low polyreactivity |
| QVQLVESGGGLVQAGGSLRLCCAASGFTFPYNGMGWYRQAPGKERELVASISWSGASTYYADSVKGRFTISRDNAKNTVYLQMNSLKPEDTAVYYCAADPGYYSWGCSQDDYWGQGTQVTVSS | low polyreactivity |
| QVQLVESGGGLVQAGGSLRLCCAASGFTFSYYAMGGYRQAPGKERELVAAISRSGGRTYYADSVKGRFTISRDHAKNTVYVQMNSLKPEDTAVYSCAGVYFGSIFVLEYDYWGQGTQVTVSS | high polyreactivity |
| QVQLVESGGGLVQAGGSLRLCCAASGITFALNAMRWYRQAPGNERELLAAISWSGDSTYYADSVKGRITIARDNAKNTVYLQMNSLKPEDTAVYYCAAVAYLNWTPHYYWGQGTQVTVSS | low polyreactivity |
| QVQLVESGGGLVQAGGSLRLCCAASGSTFTLYAMGWYSQAPGKVRELVAAISWSTTSTYYAHSVKGRFTISRDNAKNTVSLQMNSLKPEDTAVYYCAAELYRAEYDYWGQGTQVTVSS | high polyreactivity |
| QVQLVESGGGLVQAGGSLRLCCAASGSTFYYYAMGWYRQAPGKEREFVASISSRGTSTYYADSVKGRFTISRDNAKNTVYLQLNSLKPEDTAVYYCAARGWGPTRAYDYSGQGTQVTVSS | high polyreactivity |
| QVQLVESGGGLVQAGGSLRLFCAASGRIFSAYAMGLYRQAPGKERELVAGISSRGGSTYYADSVKGRFTISRDNAKNTVYLQMNSLKPEDTAVYYCAKPYGRRYGRLHDYWGQGTQVTVSS | high polyreactivity |
| QVQLVESGGGLVQAGGSLRLGCAASGGTITSYAMGWYRQAPGKERELVAAITVSGSSTYYADSVKGRFTISRDNAKNTVYLQMNSLKPEDTAVYYCAARWRRFQFDYWGQGTQVTVSS | high polyreactivity |
| QVQLVESGGGLVQAGGSLRLGCAASGITFTPYAMGWYRQAPGKERELVAAISWRGGSTYYADSVKGRFTISRDNAKNTVYLQMNSLKPEDTAVYFCAKDGRGYGRYSRYYTGDYWGQGTQVTVSS | low polyreactivity |
| QVQLVESGGGLVQAGGSLRLICAACGFTLTGYTMGWYRQAPGKERELVAAITSRGGTTYYADSVKGRFTISRDNAKYTVYLQMNSLKPEDTAVYYCNVVYPYLEYDYWGQGTQVTVSS | high polyreactivity |

| Sequence | polyreactivity (PSR sort gate) |
| --- | --- |
| QVQLVESGGGLVQAGGSLRLICAASGATFYFYAMGWYREAPGKERELVAAISKRGTSTYYADSVKWRFTISRDNAKNTVYLQLTSLKPEDTAVYFCAADAPRGYNYWGQGTQVTVSS | high polyreactivity |
| QVQLVESGGGLVQAGGSLRLICAASGFIFDWNTMGWYRQAPGKEREMVAAISWSGAGTYYADSVKGRFTISRDNAKNTVYLQMNSLKPEDTAVYYCNAVRANGQASQEGEYWGQGTQVTVSS | high polyreactivity |
| QVQLVESGGGLVQAGGSLRLICAASGFIFRNYARGWYRQAPGKERELVAAITRSGTSTYYADSVKGRFTISRDNAKNTVYLQMNSLKPEDTAVYYCNAGWGLRLSWLGNYWGQGTQVTVSS | high polyreactivity |
| QVQLVESGGGLVQAGGSLRLICAASGFIFTPYAMGWYRQAPGKERELVAAITWRGARTYYADSVKGRFTISRDNAKNTVYLQMNSLKPEDTAVYYCAVAYWNRQSLFRMYYWGQGTQVTVSS | high polyreactivity |
| QVQLVESGGGLVQAGGSLRLICAASGFIFYPYAMGWYRQAPGKERELVAVITSGGRTYYADSVKGRFTISRDNAKNTVYLQMNSLKPEDTAVYYCNADTFQWWDIADVYVIVKYGYWGQGTQVTVSS | low polyreactivity |
| QVQLVESGGGLVQAGGSLRLICAASGFIITRNAMVWYRPAPGKERELGAVISYGGGSTYYADSVKGRFTISRDNAKNTVYLQMNSLKPEDTAVYYCAADPTWRYYYHYTYYYWGQGTQVTVSS | high polyreactivity |
| QVQLVESGGGLVQAGGSLRLICAASGFILKYNAMGWYRQAPGKERELVAAISSNGGRTYYADSVKGRFTISRDNAMNTVYLQMNSLKPVDTAVYYCAAGRLQPVLGGYWGQGTQVTVSS | low polyreactivity |
| QVQLVESGGGLVQAGGSLRLICAASGFTFAYYAMGWYRQAPGKERELVAAISSGGSTYYADSVKGRFTISRDNAKNTVYLQMNSLKPEDTAVYYCAARGGRPLIHHWPWYSWKYDYWGQGTQVTVSS | low polyreactivity |
| QVQLVESGGGLVQAGGSLRLICAASGFTFLTNAMGWYRQAPGKERELVAAISSGGNTNYADSVKGRFTISRDNAKNTVYLQMNSLKPEDTAVYYCAADNDYLSSQVSYYYWGHGTQVTVSS | low polyreactivity |
| QVQLVESGGGLVQAGGSLRLICAASGFTFSVYAMGWYRQAPGKERELVAAITWRGGSTYYADSVKGRFTISRDNAKNTVYLQMNSLKPEDTAVYYCAVLYPKYGKRYGYWGQGTQVTVSS | high polyreactivity |
| QVQLVESGGGLVQAGGSLRLICAASGFTFVANAMGWYRPAPGKERELVAVIDWDEGSTYYADSVKGRFTISRDNAKNTVYLQMNSLKPEETAVYYCNADGYSPDRYDYYYRYYYWGQGTQVTVSS | low polyreactivity |
| QVQLVESGGGLVQAGGSLRLICAASGFTFWNYAMGWYRQAPGKERELVAAITWSGGITYYADSVKGRFTISRDNAKNTVYLQMNSLKPEDTAVYYCAAYPQYQPEWYYIEYDYWGQGTQVTVSS | low polyreactivity |
| QVQLVESGGGLVQAGGSLRLICAASGFTFYLYTMGWYRQAPGKERELVAAISWRGGGTYYADSVKGRFTISRDNAKNTVYLQMNSLKPEDTEVYYCAAYWRRRLVYYYWGQGTQVTVSS | high polyreactivity |
| QVQLVESGGGLVQAGGSLRLICAASGFTFYYKAMGWYRPAHGKERELVAAISTGGSTYYADSVKGRFTISRDNAKNTVYLQMNSLKPEDTAVYYCARSLWTGGYGYYYWGQGTQVTVSS | high polyreactivity |
| QVQLVESGGGLVQAGGSLRLICAASGFTLGSNAMGWYRQAPGKERELVAAMSKSGGSTYYADSVKGRFTISRDNAKNTVYLQMNSLKPEDTAVYYCAARYLYQGYRYDYWGQGTQVTVSS | high polyreactivity |
| QVQLVESGGGLVQAGGSLRLICAASGGIFGINAMGWYRPSPVKERELVAAINLSGGRTYYADSVKGRFTISRDNAKKTVYLLMNSLKPEDSAVYYCAAYYGYSLYGHYEYWGQGTQVTVSS | high polyreactivity |
| QVQLVESGGGLVQAGGSLRLICAASGGIFGSYAMGWYRQAPGKEREFVAAIRYGSGSTYYADSVKGRFTISRDNAKNTVYLQMNSLKPEDTAVYYCATEYWGVYGYGFIYDYWGQGTQVTVSS | low polyreactivity |
| QVQLVESGGGLVQAGGSLRLICAASGGTFYDYAMGWYRQAPGKERELVAAISASGDSTYYADSVKGRFTISRDNAKNTVYLQMNSLKPEDTAVYSCAAEFTAFDGFDYWGQGTQVTVSS | low polyreactivity |
| QVQLVESGGGLVQAGGSLRLICAASGIIFAWYVMGWSRQAPGKERELVAAITQSGGSTFYADSVKGRFTISRDNAKNTVYLQLNSLKPEDTAVYYCNTDYFFNVPEMDSWGQGTQVTVYS | low polyreactivity |
| QVQLVESGGGLVQAGGSLRLICAASGIIFFRYAMGWYRQAPGKERELVASIRAIGGSTSYADSVKGRFTISRDNAKNTVYLQMNSLKPEDTAVFYCAARQNYRYGYWGQGTQVTVSS | high polyreactivity |
